Reference: US20140377215A1

Columns and labels:
Assay in all cases: 1H-15N HSQC NMR titration of 15N-labeled CBD with mini-collagen
[1] = target: [PROXYL-(POG)3POA(POG)6]3
[2] = target: [PROXYL-(POG)4POA(POG)5]3
[3] = target: [PROXYL-(POG)5POA(POG)4]3
[4] = target: [PROXYL-(POG)6POA(POG)3]3

Measured: Kd

Sequence of collagen-binding domain (CBD), s3b (Gly893-Lys1008) peptide derived from Clostridium histolyticum cl (Q9X721 1003-1118 limits assumed): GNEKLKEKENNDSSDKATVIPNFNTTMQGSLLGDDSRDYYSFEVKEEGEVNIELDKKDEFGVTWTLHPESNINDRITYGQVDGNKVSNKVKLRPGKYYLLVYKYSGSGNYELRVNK

collagen-binding domain (CBD), s3b (Gly893-Lys1008) peptide derived from Clostridium histolyticum cl (from UniProt Q9X721 1003-1118)
< 100 µM: all assays above
